B1: Mineralocorticoid receptor (Homo sapiens), P08235 (parent)
chain: METKGYHSLPEGLDMERRWGQVSQAVERSSLGPTERTDENNYMEIVNVSCVSGAIPNNSTQGSSKEKQELLPCLQQDNNRPGILTSDIKTELESKELSATVAESMGLYMDSVRDADYSYEQQNQQGSMSPAKIYQNVEQLVKFYKGNGHRPSTLSCVNTPLRSFMSDSGSSVNGGVMRAVVKSPIMCHEKSPSVCSPLNMTSSVCSPAGINSVSSTTASFGSFPVHSPITQGTPLTCSPNVENRGSRSHSPAHASNVGSPLSSPLSSMKSSISSPPSHCSVKSPVSSPNNVTLRSSVSSPANINNSRCSVSSPSNTNNRSTLSSPAASTVGSICSPVNNAFSYTASGTSAGSSTLRDVVPSPDTQEKGAQEVPFPKTEEVESAISNGVTGQLNIVQYIKPEPDGAFSSSCLGGNSKINSDSSFSVPIKQESTKHSCSGTSFKGNPTVNPFPFMDGSYFSFMDDKDYYSLSGILGPPVPGFDGNCEGSGFPVGIKQEPDDGSYYPEASIPSSAIVGVNSGGQSFHYRIGAQGTISLSRSARDQSFQHLSSFPPVNTLVESWKSHGDLSSRRSDGYPVLEYIPENVSSSTLRSVSTGSSRPSKICLVCGDEASGCHYGVVTCGSCKVFFKRAVEGQHNYLCAGRNDCIIDKIRRKNCPACRLQKCLQAGMNLGARKSKKLGKLKGIHEEQPQQQQPPPPPPPPQSPEEGTTYIAPAKEPSVNTALVPQLSTISRALTPSPVMVLENIEPEIVYAGYDSSKPDTAENLLSTLNRLAGKQMIQVVKWAKVLPGFKNLPLEDQITLIQYSWMCLSSFALSWRSYKHTNSQFLYFAPDLVFNEEKMHQSAMYELCQGMHQISLQFVRLQLTFEEYTIMKVLLLLSTIPKDGLKSQAAFEEMRTNYIKELRKMVTKCPNNSGQSWQRFYQLTKLLDSMHDLVSDLLEFCFYTFRESHALKVEFPAMLVEIISDQLPKVESGNAKPLYFHRK
partner: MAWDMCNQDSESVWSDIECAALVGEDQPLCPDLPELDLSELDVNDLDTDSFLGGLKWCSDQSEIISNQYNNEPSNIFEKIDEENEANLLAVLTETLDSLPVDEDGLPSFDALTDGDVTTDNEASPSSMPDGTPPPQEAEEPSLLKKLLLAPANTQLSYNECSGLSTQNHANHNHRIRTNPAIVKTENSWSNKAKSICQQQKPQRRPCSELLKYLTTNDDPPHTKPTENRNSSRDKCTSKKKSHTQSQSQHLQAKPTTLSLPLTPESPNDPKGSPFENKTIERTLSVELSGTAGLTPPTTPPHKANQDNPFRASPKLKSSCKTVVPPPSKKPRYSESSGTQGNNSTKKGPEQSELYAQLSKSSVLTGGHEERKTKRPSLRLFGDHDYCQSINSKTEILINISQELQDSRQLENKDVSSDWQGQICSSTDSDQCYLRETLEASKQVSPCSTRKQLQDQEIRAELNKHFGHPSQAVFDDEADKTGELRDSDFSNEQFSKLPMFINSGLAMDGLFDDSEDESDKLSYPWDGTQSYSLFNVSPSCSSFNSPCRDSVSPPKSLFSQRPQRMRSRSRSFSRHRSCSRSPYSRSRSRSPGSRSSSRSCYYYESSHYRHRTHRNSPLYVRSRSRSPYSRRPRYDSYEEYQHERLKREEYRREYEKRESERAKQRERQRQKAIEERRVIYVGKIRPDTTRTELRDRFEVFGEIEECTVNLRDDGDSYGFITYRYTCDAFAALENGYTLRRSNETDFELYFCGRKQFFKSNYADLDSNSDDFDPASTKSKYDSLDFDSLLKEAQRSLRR
B2: Tesmin (Homo sapiens), Q9Y4I5 (parent)
chain: MEEGPLPGGLPSPEDAMVTELLSPEGPFASENIGLKAPVKYEEDEFHVFKEAYLGPADPKEPVLHAFNPALGADCKGQVKAKLAGGDSDGGELLGEYPGIPELSALEDVALLQAPQPPACNVHFLSSLLPAHRSPAVLPLGAWVLEGASHPGVRMIPVEIKEAGGTTTSNNPEEATLQNLLAQESCCKFPSSQELEDASCCSLKKDSNPMVICQLKGGTQMLCIDNSRTRELKALHLVPQYQDQNNYLQSDVPKPMTALVGRFLPASTKLNLITQQLEGALPSVVNGSAFPSGSTLPGPPKITLAGYCDCFASGDFCNNCNCNNCCNNLHHDIERFKAIKACLGRNPEAFQPKIGKGQLGNVKPQHNKGCNCRRSGCLKNYCECYEAQIMCSSICKCIGCKNYEESPERKTLMSMPNYMQTGGLEGSHYLPPTKFSGLPRFSHDRRPSSCISWEVVEATCACLLAQGEEAEKEHCSKCLAEQMILEEFGRCLSQILHTEFKSKGLKME
B3: Mineralocorticoid receptor (Homo sapiens), P08235 (parent)
chain: B1 chain
partner: B2 chain

Variants of B1 are the subject of the first test. Particulars: with prgc1_human PPARGC1A.
E962A: the “effect of a mutation on the interaction” value was “disrupting interaction strength”.

A further test covers variants of B1. The conditions noted are these: with prgc1_human PPARGC1A. This is another data set of the same source.
Take E962A: the “effect of a mutation on the interaction” value is “decreasing interaction strength”.

The next test covers variants of B2. Particulars: with mcr_human NR3C2, P08235.
L128A;L129A: the “effect of a mutation on the interaction” value is “with no effect”.
The same measure, in the same setting: the entry for L128A;L129A;L180A;L181A is “disrupting interaction strength”; for L180A;L181A it is “with no effect”.

Variants of B3 are the subject of the next test. The conditions noted are these: with mtl5_human TESMIN.
On to E962A, for which the “effect of a mutation on the interaction” value is reported as “decreasing interaction strength”.
